Test results: PMC3017119, “Structural Basis for the Recognition of Cellular mRNA Export Factor REF by Herpes Viral Proteins HSV-1 ICP27 and HVS ORF57” (PLoS Pathogens, 2011)

Columns and labels:
[1] = tested on: REF^156–218 (REF2-I C-terminal domain); experiment: NMR 1H-15N correlation spectra of 15N-labelled REF^156–218 with added viral protein constructs; assay type: binding, murine; conditions: 2-fold excess of viral construct; 15N-HSQC
GST-REF2-I = GST-REF2-I pull down of 35S-radiolabelled ICP27 fragments; assay type: binding, murine; conditions: 35S-radiolabelled protein from rabbit reticulocytes, glutathione beads, RB100 buffer pH 7.5, 10 µg/ml RNAse A; SDS-PAGE, PhosphoImage
Text: To confirm the position of REF-binding domains within ICP27 and ORF57 and to minimise the size of constructs for more detailed NMR mapping, a series of fragments derived from HSV-1 ICP27 were screened for binding to GST-REF2-I using pull down assays (Fig. 1). […] The REF-binding fragment of ORF57 aa 8–120 identified previously similarly interacted with the same fragments of REF (Fig. 1D).
Figure 1 Identification of regions for the interactions between REF and ICP27/ORF57. (A) Subdivision of ICP27, ORF57 and REF2-I in fragments. […] (C) Fusion of the ICP27^103–138 peptide to GST allows a specific pull down of REF, REF^1–155 (NM) and REF^54–155 (Δ53) and a very weak pull down of the REF^1–70 (N); no interaction is detected with the control Ras protein. (D) Same pull down assay as panel C but using GST fusion of ORF57 aa 8–120 in place of ICP27.
GST or GST protein fusions were first immobilised on 30 µl slurry glutathione-coated beads (GE Healthcare) before 8 µl ^35S-radiolabelled proteins synthesised in rabbit reticulocytes (Promega) were added to the binding reactions in RB100 buffer (25 mM HEPES pH 7.5/100 mM KOAc/10 mM MgCl2/1 mM DTT/0.05% Triton X-100/10% glycerol) in presence of 10 µg/ml RNAse A. Washed and eluted protein complexes were resolved on 15% SDS-PAGE stained with Coomassie blue and analysed by PhosphoImage. […]

B1: ICP27^1–138: recombinant fragment aa 1–138 of HSV-1 ICP27 (protein)
chain: MATDIDMLIDLGLDLSDSDLDEDPPEPAESRRDDLESDSSGECSSSDEDMEDPHGEDGPEPILDAARPAVRPSRPEDPGVPSTQTPRPTERQGPNDPQPAPHSVWSRLGARRPSCSPEQHGGKVARLQPPPTKAQPAR
modifications: 35S-radiolabelled
notes: recombinant fragment aa 1–138 of HSV-1 ICP27
B1 was tested, and the “Changes in 1H-15N correlation spectra of 15N-REF^156–218 upon addition” value [1] was “No significant changes” and the “Binding to GST-REF2-I in pull down” value (GST-REF2-I) was “essentially the same as that of the full-length protein”.
